Test results: paper PMC3141782 (2011)

Molecular target: luteinizing hormone receptor (LHR) (Homo sapiens, UniProt P22888)
Assay: [125I]-hCG binding to transfected SKOV-3 cells

Chain of luteinizing hormone receptor (LHR) (P22888 27-699): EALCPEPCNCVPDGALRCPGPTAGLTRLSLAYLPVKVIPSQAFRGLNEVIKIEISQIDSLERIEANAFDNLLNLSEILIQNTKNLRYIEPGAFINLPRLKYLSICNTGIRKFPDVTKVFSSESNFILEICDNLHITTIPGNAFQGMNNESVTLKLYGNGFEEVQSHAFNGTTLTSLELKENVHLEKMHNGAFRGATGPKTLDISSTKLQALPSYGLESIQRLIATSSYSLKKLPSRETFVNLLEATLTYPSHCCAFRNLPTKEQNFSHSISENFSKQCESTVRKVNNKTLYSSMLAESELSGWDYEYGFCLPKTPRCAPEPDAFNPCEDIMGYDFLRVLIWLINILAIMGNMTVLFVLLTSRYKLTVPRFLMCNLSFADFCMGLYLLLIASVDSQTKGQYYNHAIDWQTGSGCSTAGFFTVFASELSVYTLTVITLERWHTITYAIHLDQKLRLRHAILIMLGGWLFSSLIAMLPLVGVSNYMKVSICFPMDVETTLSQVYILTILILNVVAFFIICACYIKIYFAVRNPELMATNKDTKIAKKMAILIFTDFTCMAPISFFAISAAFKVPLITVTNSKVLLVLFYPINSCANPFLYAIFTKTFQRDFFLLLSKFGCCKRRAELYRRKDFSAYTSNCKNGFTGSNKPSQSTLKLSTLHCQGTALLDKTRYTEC

Kd: 0.3 nM
B1: human chorionic gonadotropin (protein)
chain 1: not shown
chain 2: SKEPLRPRCRPINATLAVEKEGCPVCITVNTTICAGYCPTMTRVLQGVLPALPQVVCNYRDVRFESIRLPGCPRGVNPVVSYAVALSCQCALCRRSTTDCGGPKDHPLTCDDPRFQDSSSSKAPPPSLPSPSRLPGPSDTPILPQ
modifications: 125I-labelled hCG
